Experimental data from PMC4485828 (Oncoimmunology, 2015).

Tests used:
SEC [1] = molecular target: the molecule itself; test: SEC
SEC [2] = test: SEC

B1: GD2xCD3-HDD bispecific antibody dimer (GD2xCD3 tsc-BsAb with the HNF1α dimerization domain at the C-terminus) (bispecific antibody)
chain: QVQLQQSGPELVKPGASVKISCKTSGYKFTEYTMHWVKQSHGKCLEWIGGINPNNGGTNYNQKFKGKATLTVDKSSSTAYMELRSLTSEDSAVYYCARDTTVPYAYWGQGTTVTVSSGGGGSGGGGSGGGGSDIELTQSPAIMSASPGEKVTMTCSASSSISYMHWYQQKPGTSPKRWIYDTSKLASSVPARFSGSGSGTSYSLTISSMEAEDAATYYCHQRSSYPLTFGCGTKLEIKRASTKGPGGGGSGGGGSGGGGSQVQLVQSGGGVVQPGRSLRLSCKASGYTFTRYTMHWVRQAPGKGLEWIGYINPSRGYTNYNQKFKDRFTISRDNSKNTAFLQMDSLRPEDTGVYFCARYYDDHYCLDYWGQGTPVTVSSGGGGSGGGGSGGGGSDIQMTQSPSSLSASVGDRVTITCSASSSVSYMNWYQQTPGKAPKRWIYDTSKLASGVPSRFSGSGSGTDYTFTISSLQPEDIATYYCQQWSSNPFTFGQGTKLQITRTPLGDTTHTSGMVSKLSQLQTELLAALLESGLSKEALIQALGEGSGGAP
**Q.** Which results are given for B1?
**A.** stoichiometry N (SEC [1]): 2; percent dimeric (purity by HPLC-SEC) (SEC [2]): 97%
